According to IntAct's records for PubMed 28683311:

Columns and labels:
limd1_human LIMD1 [1] = target: limd1_human LIMD1 (UniProt Q9UGP4)
tnr6a_human TNRC6A = tnr6a_human TNRC6A (UniProt Q8NDV7)
limd1_human LIMD1 [2] = target: limd1_human LIMD1 (UniProt Q9UGP4); remark: listed apart in the source
limd1_human LIMD1 [3] = target: limd1_human LIMD1 (UniProt Q9UGP4); remark: listed apart in the source

Chain of limd1_human LIMD1 (Q9UGP4 whole entry): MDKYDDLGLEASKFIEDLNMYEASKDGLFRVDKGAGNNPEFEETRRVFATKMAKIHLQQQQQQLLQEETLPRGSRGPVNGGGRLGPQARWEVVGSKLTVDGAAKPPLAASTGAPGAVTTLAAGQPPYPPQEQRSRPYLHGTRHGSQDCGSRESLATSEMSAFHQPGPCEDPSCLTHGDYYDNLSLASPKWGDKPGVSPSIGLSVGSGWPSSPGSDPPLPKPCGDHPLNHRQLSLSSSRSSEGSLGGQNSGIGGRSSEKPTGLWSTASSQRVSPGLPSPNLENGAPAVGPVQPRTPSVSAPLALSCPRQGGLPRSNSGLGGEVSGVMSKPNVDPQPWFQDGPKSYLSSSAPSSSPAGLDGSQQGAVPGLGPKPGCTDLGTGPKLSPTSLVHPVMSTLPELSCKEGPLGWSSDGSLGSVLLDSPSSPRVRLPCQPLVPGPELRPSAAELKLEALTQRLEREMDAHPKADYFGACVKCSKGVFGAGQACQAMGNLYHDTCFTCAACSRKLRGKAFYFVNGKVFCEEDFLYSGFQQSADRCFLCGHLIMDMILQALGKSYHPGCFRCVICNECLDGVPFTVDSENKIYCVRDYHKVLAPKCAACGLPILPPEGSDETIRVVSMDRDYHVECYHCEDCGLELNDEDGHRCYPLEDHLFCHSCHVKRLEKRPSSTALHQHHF
Chain of tnr6a_human TNRC6A (Q8NDV7 whole entry): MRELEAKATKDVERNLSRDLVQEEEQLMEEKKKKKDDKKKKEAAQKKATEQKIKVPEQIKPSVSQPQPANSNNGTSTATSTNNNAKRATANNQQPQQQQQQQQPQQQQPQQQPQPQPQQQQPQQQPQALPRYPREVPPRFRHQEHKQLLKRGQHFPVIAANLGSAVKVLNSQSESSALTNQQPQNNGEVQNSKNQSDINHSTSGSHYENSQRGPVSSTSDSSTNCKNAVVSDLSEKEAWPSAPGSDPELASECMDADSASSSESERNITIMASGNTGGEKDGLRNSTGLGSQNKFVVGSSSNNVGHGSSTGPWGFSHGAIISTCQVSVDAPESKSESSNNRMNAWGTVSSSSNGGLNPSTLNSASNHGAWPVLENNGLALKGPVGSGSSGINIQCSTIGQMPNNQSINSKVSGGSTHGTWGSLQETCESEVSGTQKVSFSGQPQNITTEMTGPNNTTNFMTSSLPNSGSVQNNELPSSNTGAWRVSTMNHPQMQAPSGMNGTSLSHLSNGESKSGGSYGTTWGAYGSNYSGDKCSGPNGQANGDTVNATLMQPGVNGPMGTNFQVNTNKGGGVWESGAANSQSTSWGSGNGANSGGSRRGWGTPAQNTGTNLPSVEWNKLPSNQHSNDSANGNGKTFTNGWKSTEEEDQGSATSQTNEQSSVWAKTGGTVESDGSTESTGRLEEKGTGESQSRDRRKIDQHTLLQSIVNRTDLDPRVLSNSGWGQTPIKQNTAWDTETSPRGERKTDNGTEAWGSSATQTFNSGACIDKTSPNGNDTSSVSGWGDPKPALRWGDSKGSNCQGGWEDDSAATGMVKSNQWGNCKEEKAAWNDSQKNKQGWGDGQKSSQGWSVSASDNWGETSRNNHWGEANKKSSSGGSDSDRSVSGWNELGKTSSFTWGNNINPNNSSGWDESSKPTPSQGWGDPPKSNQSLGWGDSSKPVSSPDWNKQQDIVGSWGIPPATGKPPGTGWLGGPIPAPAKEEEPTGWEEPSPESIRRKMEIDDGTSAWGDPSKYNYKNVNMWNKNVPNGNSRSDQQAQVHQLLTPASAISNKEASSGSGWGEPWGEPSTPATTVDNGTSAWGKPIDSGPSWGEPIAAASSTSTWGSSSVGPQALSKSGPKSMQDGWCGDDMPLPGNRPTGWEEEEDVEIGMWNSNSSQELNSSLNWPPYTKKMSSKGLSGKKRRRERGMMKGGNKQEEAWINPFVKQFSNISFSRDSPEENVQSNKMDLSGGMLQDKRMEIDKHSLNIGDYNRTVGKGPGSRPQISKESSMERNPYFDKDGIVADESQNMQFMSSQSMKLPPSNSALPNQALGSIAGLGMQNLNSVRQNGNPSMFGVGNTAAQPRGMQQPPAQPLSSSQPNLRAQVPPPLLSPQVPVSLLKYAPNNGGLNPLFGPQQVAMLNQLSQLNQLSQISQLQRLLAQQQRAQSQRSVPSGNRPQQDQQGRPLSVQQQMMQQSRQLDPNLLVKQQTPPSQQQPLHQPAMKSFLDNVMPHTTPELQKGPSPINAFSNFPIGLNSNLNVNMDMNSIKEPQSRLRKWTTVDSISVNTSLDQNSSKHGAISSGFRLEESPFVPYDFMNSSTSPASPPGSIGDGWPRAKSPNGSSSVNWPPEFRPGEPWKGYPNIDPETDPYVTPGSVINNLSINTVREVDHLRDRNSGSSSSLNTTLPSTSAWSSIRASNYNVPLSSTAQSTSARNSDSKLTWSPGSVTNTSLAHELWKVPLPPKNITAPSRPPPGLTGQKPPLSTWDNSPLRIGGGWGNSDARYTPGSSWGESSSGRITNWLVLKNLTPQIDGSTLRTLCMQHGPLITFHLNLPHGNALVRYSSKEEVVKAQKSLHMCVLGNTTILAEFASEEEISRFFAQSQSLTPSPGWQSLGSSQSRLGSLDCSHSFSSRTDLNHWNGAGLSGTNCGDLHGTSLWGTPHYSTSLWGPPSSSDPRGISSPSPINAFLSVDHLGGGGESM

Row | Substance | effect of a mutation on the interaction (limd1_human LIMD1 [1]) | effect of a mutation on the interaction (tnr6a_human TNRC6A) | effect of a mutation on the interaction (limd1_human LIMD1 [2]) | effect of a mutation on the interaction (limd1_human LIMD1 [3])
1 | Protein argonaute-2 (Homo sapiens), Q9UKV8 S387A | decreasing interaction strength | with no effect | – | –
2 | Protein argonaute-2 (Homo sapiens), Q9UKV8 S387E | increasing interaction strength | – | with no effect | –
3 | Protein argonaute-4 (Homo sapiens) (from UniProt Q9HCK5) S377A | – | – | – | decreasing interaction strength
4 | Protein argonaute-4 (Homo sapiens) (from UniProt Q9HCK5) S377E | – | – | – | with no effect
